Results taken from patent US20230190800A1.

Molecular target: CD48 (UniProt P09326)
Assay: cell-based or functional assay

Sequence of UniProt P09326 (P09326 27-220 limits assumed): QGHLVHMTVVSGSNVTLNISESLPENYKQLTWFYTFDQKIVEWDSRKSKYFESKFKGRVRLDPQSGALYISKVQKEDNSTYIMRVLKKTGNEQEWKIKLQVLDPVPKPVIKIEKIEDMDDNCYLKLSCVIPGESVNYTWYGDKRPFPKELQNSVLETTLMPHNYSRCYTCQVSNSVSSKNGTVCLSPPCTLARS

- NK cells expressing MIP-1α after incubation with S2 cells expressing B7H7 and CD48: 70%
- NK cells with at least 3 different responses after incubation with S2 cells expressing B7H7 and CD48: 10%
Substance: 2B4 (CD244) (from UniProt Q9BZW8 22-370) (receptor)
